Starred links: 1 amine or outer side, 2 acyl side, 3 side chain; linkers in the order of their positions; H or OH if unused. Positions of bridges follow the written chain, without caps; N, C: chain ends. Residues, ends and D or L forms follow the SMILES beside them. TBMB = c1c(C[*:1])cc(C[*:3])cc1C[*:2]; mXylylene = c1cc(C[*:1])cc(C[*:2])c1
Assay: circular dichroism
Details: PBS 10 mM; pH 7.4; 25 °C; 10 uM
`CC(=O)N[C@@H](C)C(=O)N[C@@H](C)C(=O)N[C@@H](C)C(=O)N[C@@H](C)C(=O)N[C@@H](CCCCN)C(=O)N[C@@H](C)C(=O)N[C@@H](C)C(=O)N[C@@H](C)C(=O)N[C@@H](C)C(=O)N[C@@H](CCCCN)C(=O)N[C@@H](Cc1c[nH]c2ccccc12)C(=O)N[C@H]1CSCc2cc3cc(c2)CSC[C@H](NC(=O)[C@H](C)NC(=O)[C@H](C)NC1=O)C(=O)N[C@@H](C)C(=O)N[C@H](C(N)=O)CSC3` (Ac-AAAAKAAAAKWCAACAC-NH2; linker 12-15-17 via TBMB) showed a helicity of 33%.
For `CC(=O)N[C@@H](C)C(=O)N[C@@H](C)C(=O)N[C@@H](C)C(=O)N[C@@H](C)C(=O)N[C@@H](CCCCN)C(=O)N[C@@H](C)C(=O)N[C@@H](C)C(=O)N[C@@H](C)C(=O)N[C@@H](C)C(=O)N[C@@H](CCCCN)C(=O)N[C@@H](Cc1c[nH]c2ccccc12)C(=O)N[C@H]1CSCc2cc3cc(c2)CSC[C@H](NC(=O)[C@H](C)NC(=O)[C@H](C)NC1=O)C(=O)NCC(=O)N[C@H](C(N)=O)CSC3` (Ac-AAAAKAAAAKWCAACGC-NH2; linker 12-15-17 via TBMB), the helicity was 65%.
Compound `CC(=O)N[C@@H](C)C(=O)N[C@@H](C)C(=O)N[C@@H](C)C(=O)N[C@@H](C)C(=O)N[C@@H](CCCCN)C(=O)N[C@@H](Cc1c[nH]c2ccccc12)C(=O)N[C@H]1CSCc2cccc(c2)CSC[C@@H](C(N)=O)NC(=O)CNC(=O)[C@H](C)NC(=O)[C@H](C)NC(=O)[C@H](C)NC1=O` (Ac-AAAAKWCAAAGC-NH2; linker 7-12 via mXylylene) has a helicity of 34%.
`CC(=O)N[C@@H](C)C(=O)N[C@@H](C)C(=O)N[C@@H](C)C(=O)N[C@@H](C)C(=O)N[C@@H](CCCCN)C(=O)N[C@@H](Cc1c[nH]c2ccccc12)C(=O)N[C@H]1CSCc2cccc(c2)CSC[C@@H](C(=O)NCC(=O)N[C@@H](C)C(N)=O)NC(=O)[C@H](C)NC(=O)[C@H](C)NC1=O` (Ac-AAAAKWCAACGA-NH2; linker 7-10 via mXylylene) gave a helicity of 33%.
Compound `CC(=O)N[C@@H](C)C(=O)N[C@@H](C)C(=O)N[C@@H](C)C(=O)N[C@@H](C)C(=O)N[C@@H](CCCCN)C(=O)N[C@@H](Cc1c[nH]c2ccccc12)C(=O)N[C@H]1CSCc2cc3cc(c2)CSC[C@H](NC(=O)[C@H](C)NC(=O)[C@H](C)NC1=O)C(=O)NCC(=O)N[C@H](C(N)=O)CSC3` (Ac-AAAAKWCAACGC-NH2; linker 7-10-12 via TBMB) has a helicity of 59%.
Compound `CC[C@H](C)[C@@H]1NC(=O)[C@@H](NC(=O)[C@H](C)NC(=O)[C@H](CC(C)C)NC(=O)[C@H](CCC(N)=O)NC(=O)[C@H](CCCNC(=N)N)NC(=O)[C@H](C)NC(=O)[C@@H](NC(=O)[C@H](CCC(N)=O)NC(C)=O)C(C)C)CSCc2cc3cc(c2)CSC[C@H](NC(=O)[C@H](Cc2ccc(O)cc2)NC1=O)C(=O)NCC(=O)N[C@H](C(N)=O)CSC3` (Ac-QVARQLACIYCGC-NH2; linker 8-11-13 via TBMB) has a helicity of 38%.
Compound `CC[C@H](C)[C@H](NC(=O)[C@H](CCCNC(=N)N)NC(C)=O)C(=O)N[C@@H](C)C(=O)N[C@@H](CCCNC(=N)N)C(=O)N[C@@H](CC(C)C)C(=O)N[C@@H](CCC(=O)O)C(=O)N[C@@H](CCC(=O)O)C(=O)N[C@H]1CSCc2cc3cc(c2)CSC[C@H](NC(=O)[C@H](CCCCN)NC(=O)[C@H](Cc2ccc(O)cc2)NC1=O)C(=O)NCC(=O)N[C@H](C(N)=O)CSC3` (Ac-RIARLEECYKCGC-NH2; linker 8-11-13 via TBMB) has a helicity of 48%.
Compound Ac-AAAAKAAAAKAAAAKAW-NH2 has a helicity of 48%.
Ac-AAAAKAAAAKAW-NH2 gave a helicity of 17%.
Ac-QVARQLAEIY-NH2 gave a helicity of 8%.
In the case of Ac-RIARLEEKYK-NH2, the helicity is reported as 17%.
With Ac-WAAAKAAAAKALAAIGV-NH2 the helicity was 37%.
Work on Ac-WAAAKAAAAKALAALGF-NH2 yielded a helicity of 38%.
Ac-WAAAKAAAAKALAALGI-NH2 showed a helicity of 52%.
In the case of Ac-WAAAKAAAAKALAALGL-NH2, the helicity is reported as 54%.
In the case of Ac-WAAAKAAAAKALAALGV-NH2, the helicity is reported as 44%.
Ac-WAAAKAAAAKALAALGW-NH2 showed a helicity of 44%.
Compound Ac-WAAAKAAAAKALAALGY-NH2 has a helicity of 45%.
